Measured values reported in article doi:10.1101/2022.04.28.489915 (bioRxiv, 2022).

Target: T1, TolC (E. coli, UniProt P02930 23-493)
T1 sequence: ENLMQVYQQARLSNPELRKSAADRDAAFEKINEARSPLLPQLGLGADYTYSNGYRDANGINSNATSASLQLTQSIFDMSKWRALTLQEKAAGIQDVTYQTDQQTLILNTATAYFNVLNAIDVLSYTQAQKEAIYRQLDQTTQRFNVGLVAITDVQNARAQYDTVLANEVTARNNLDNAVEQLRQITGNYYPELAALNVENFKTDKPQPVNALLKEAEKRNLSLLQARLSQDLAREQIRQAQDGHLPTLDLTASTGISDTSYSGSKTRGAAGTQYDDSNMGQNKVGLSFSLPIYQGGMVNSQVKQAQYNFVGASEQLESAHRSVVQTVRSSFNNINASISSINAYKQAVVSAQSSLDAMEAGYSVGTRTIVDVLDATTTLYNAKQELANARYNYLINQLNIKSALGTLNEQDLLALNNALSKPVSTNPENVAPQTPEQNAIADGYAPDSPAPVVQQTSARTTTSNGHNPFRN
Assay: SEC

- binding result: binds
B1: residues 1-190 of colicin E1 (colE1-T) (domain or fragment)
chain: METAVAYYKDGVPYDDKGQVIITLLNGTPDGSGSGGGGGKGGSKSESSAAIHATAKWSTAQLKKTQAEQAARAKAAAEAQAKAKANRDALTQRLKDIVNEALRHNASRTPSATELAHANNAAMQAEDERLRLAKAEEKARKEAEAAEKAFQEAEQRRKEIEREKAETERQLKLAEAEEKRLAALSEEAKA
